Results as given in US20250195685A1 (CAPSTAN THERAPEUTICS, published 2025).

Columns and labels:
[1] = target: T1, human CD8αα homodimer, recombinant protein (Acro Biosystems) (human, UniProt P01732 22-182); assay: BLI kinetic sensorgram, 1:1 global fit, 30 °C
T1 construct: also called CD8αα antigen; biotinylated CD8α recombinant protein (CDA-H82E3)
Method: (§1) The global fitting was performed with a 1:1 fitting model using GatorOne software as described below.
(§2) Biolayer interferometry kinetic assays were performed using a GatorBio Gator Plus BLI system. Kinetic buffer containing PBS plus 0.1% Tween 20 and 0.2% BSA was used for calculating the baseline. To measure the binding kinetics of anti-CD8α antibody fragment (Fab), streptavidin-immobilized SA-XT sensors (#160029, Gator Bio) were prehydrated in the kinetic buffer and loaded with […] biotinylated CD8α recombinant protein (CDA-H82E3, Acro Biosystems) at a spin speed of 400 rpm to a threshold response of 10 nm. The sensors were then incubated in the kinetic buffer for 300 s to acquire a baseline measurement prior to each association. […] The antigen-loaded sensors were incubated in the diluted solutions to capture Fab fragments for 300 s to record the association phase. Sensors were finally incubated in the kinetic buffer for 900 s to record the dissociation phase. The spin speed for all steps except the antigen loading step was 1000 rpm. The temperature of the performed assays was either 30° C. or 37° C. during the association and dissociation phases. Sensor data were baseline subtracted, and global curve fitting of the kinetic data from six different analyte concentrations at a 1:1 monovalent binding model was performed using GatorOne software (version v2.10) to determine kinetic rate constants (kₒₙ and koff) and equilibrium dissociation constants (KD) of the analyzed antibodies.

[2] = target: T2, cynomolgus macaque CD8αβ heterodimer, recombinant protein (cynomolgus macaque); assay: BLI kinetic assay (told in the description; antigen not given)
T2 construct: In BLI coupled directly to amine-reactive sensor tips; also called cynomolgus CD8αβ heterodimer
Method: as §2
(§3) The binding kinetics of CBD1033 Fab and its parental CBD1017ch Fab against human CD8αα homodimer, human CD8αβ heterodimer, and cynomolgus macaque CD8ααhomodimer were assessed following the same method in BLI evaluation of humanized Fab variants. For evaluating the binding kinetics against cynomolgus macaque CD8αβ heterodimer protein, the antigen protein was directly coupled onto amine-reactive biosensor tips (Gator Bio) following the manufacturer protocol. Briefly, the sensors were activated for 300 s with a mixture of 1-ethyl-3-(3-dimethylaminopropyl)carbodiimide hydrochloride (EDC) (ThermoFisher Scientific) and 10 mM N-Hydroxysulfosuccinimide sodium salt (sulfo-NHS) (Sigma-Aldrich) in water.

[3] = target: T3, cynomolgus macaque CD8αα homodimer, recombinant protein (cynomolgus macaque); assay: as above
T3 construct: also called cynomolgus CD8αα homodimer
Method: as §2, §3

[4] = target: T4, human CD8αβ heterodimer, recombinant protein (human, UniProt P01732 22-182; P10966 22-170, limits assumed); assay: as above
T4 sequence (P01732 22-182 limits assumed, chain 1 of 2): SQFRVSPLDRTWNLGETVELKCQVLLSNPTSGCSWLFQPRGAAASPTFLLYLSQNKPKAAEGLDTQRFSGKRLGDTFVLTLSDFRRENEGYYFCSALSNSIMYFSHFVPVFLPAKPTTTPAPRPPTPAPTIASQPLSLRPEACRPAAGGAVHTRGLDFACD
T4 sequence (P10966 22-170 limits assumed, chain 2 of 2): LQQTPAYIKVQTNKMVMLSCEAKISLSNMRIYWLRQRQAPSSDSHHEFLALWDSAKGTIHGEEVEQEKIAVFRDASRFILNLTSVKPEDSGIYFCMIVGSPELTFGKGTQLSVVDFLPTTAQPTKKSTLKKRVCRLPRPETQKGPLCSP
Method: as §2, §3

[5] = target: T1, human CD8αα homodimer, recombinant …; assay: as above
Method: as §2, §3

[6] = target: T3, cynomolgus macaque CD8αα homodimer, …; assay: BLI kinetics, Fab, 37 °C as printed in the table
Method: as §2, §3

[7] = target: T1, human CD8αα homodimer, recombinant …; assay: BLI kinetic sensorgram, 1:1 global fit, 37 °C [CONT'ED]
Method: as §1, §2

[8] = target: T3, cynomolgus macaque CD8αα homodimer, …; assay: BLI kinetic sensorgram, 1:1 global fit (legend: 30 °C; FIG. 2I prints 37 °C for the same constants)
Method: as §2, §3

[9] = target: T4, human CD8αβ heterodimer, recombinant …; assay: BLI kinetics, Fab, 37 °C
Method: as §2, §3

[10] = target: T1, human CD8αα homodimer, recombinant …; assay: BLI kinetics, Fab, 37 °C
Method: as §2, §3

[11] = target: T1, human CD8αα homodimer, recombinant …; assay: BLI kinetics, F(ab) on biotinylated CD8α (SA-XT sensor), 1:1 fit, 37 °C [CONT'ED]
Method: as §2

[12] = target: T1, human CD8αα homodimer, recombinant …; assay: BLI kinetics, F(ab) on biotinylated CD8α (SA-XT sensor), 1:1 fit, 30 °C
Method: as §2

[13] = target: T1, human CD8αα homodimer, recombinant …; assay: BLI kinetic rate analysis, Fab fragment (temperature not given)
Method: as §2

[14] = target: T2, cynomolgus macaque CD8αβ heterodimer, …; assay: BLI kinetics, Fab, antigen amine-coupled to the sensor, 30 °C
Method: The binding kinetics of CBD1033 Fab and its parental CBD1017ch Fab against human CD8αα homodimer, human CD8αβ heterodimer, and cynomolgus macaque CD8ααhomodimer were assessed following the same method in BLI evaluation of humanized Fab variants. For evaluating the binding kinetics against cynomolgus macaque CD8αβ heterodimer protein, the antigen protein was directly coupled onto amine-reactive biosensor tips (Gator Bio) following the manufacturer protocol. Briefly, the sensors were activated for 300 s with a mixture of 1-ethyl-3-(3-dimethylaminopropyl)carbodiimide hydrochloride (EDC) (ThermoFisher Scientific) and 10 mM N-Hydroxysulfosuccinimide sodium salt (sulfo-NHS) (Sigma-Aldrich) in water. The cynomolgus macaque CD8αβ protein diluted to […] in 10 mM sodium acetate buffer, pH 6.0, was allowed to be covalently captured for 300 s to an approximate threshold of 5 nm, and the sensors were subsequently deactivated with 1 M ethanolamine (ETA) (Sigma-Aldrich) solution, pH 8.5, for 300 s. The sensors were then rinsed in the kinetic buffer for 600 s. The rinse step was repeated for an additional 120 s for baseline calculation prior to the measurements of the binding kinetics. The antibody fragment was diluted into kinetic buffer via 3-fold dilution at concentrations ranging from 1000 nM to 1.37 nM. As above, the antigen-captured sensors were incubated in the diluted solutions to capture the Fab fragments for 1200 s to record the association phase. Sensors were subsequently incubated in the kinetic buffer for 1200 s to record the dissociation phase. The shaking speed for all steps was 1000 rpm and the temperature of the performed assays were at 30° C. The kinetic parameters were determined with 1:1 monovalent (Langmuir) binding model using the previous method.

T1 sequence (P01732 22-182 limits assumed): as the sequence (P01732 22-182 limits assumed, chain 1 of 2) above

B1: CBD1033 Fab (h1017-H2 / h1017-L2) (Fab, V domains shown)
VH: QVQLVQSGAEVKKPGASVKVSCKASRYTFTDYNLHWVRQAPGQGLEWMGFIYPYNGGTGYAQKFQGRVTMTVDTSTSTAYMELSSLRSEDTAVYYCARDHRYNEGVSFDYWGQGTTVTVSS
VL: DIQLTQSPSSLSASVGDRATITCRASESVDGFGNSFMNWYQQKPGKAPKLLIYLASNLESGVPSRFSGSGSGTDFTLTISSVQPEDFATYYCQQNNEDPYTFGQGTKLEIK
notes: Expressed as F(ab) fragment; also called CBD1033 Fab molecule
For B1, the Kd [1] was 3.25 nM, the koff [1] was 0.000145 s⁻¹ and the kon [1] was 44700 M⁻¹ s⁻¹. For the same binder, the “fold weaker binding affinity than CBD1017ch F(ab)” value [2] was 5 fold, the “fold weaker binding affinity than CBD1017ch F(ab)” value [3] was 5 fold and the “fold weaker binding affinity than CBD1017ch F(ab)” value [4] was 5 fold. The “fold weaker binding affinity than CBD1017ch F(ab)” value [5] was 5 fold, the Kd [6] was 10.4 nM and the koff [6] was 0.000264 s⁻¹. The kon [6] was 25400 M⁻¹ s⁻¹, the Kd [7] was 5.5 nM and the koff [7] was 0.000194 s⁻¹. For the same binder, the kon [7] was 35400 M⁻¹ s⁻¹, the Kd [8] was 10.4 nM and the koff [8] was 0.000264 s⁻¹. It also gave a kon [8] of 25400 M⁻¹ s⁻¹, a Kd [9] of 26.2 nM and a koff [9] of 0.000653 s⁻¹. It also gave a kon [9] of 25000 M⁻¹ s⁻¹, a Kd [10] of 5.5 nM and a koff [10] of 0.000194 s⁻¹. The kon [10] was 35400 M⁻¹ s⁻¹, the Kd [11] was 5.5 nM and the koff [11] was 0.000194 s⁻¹. For the same binder, the kon [11] was 35400 M⁻¹ s⁻¹, the Kd [12] was 3.25 nM and the koff [12] was 0.000145 s⁻¹. The kon [12] was 44700 M⁻¹ s⁻¹, the Kd [13] was 5.5 nM and the koff [13] was 0.000195 s⁻¹. It also gave a kon [13] of 35400 M⁻¹ s⁻¹, a Kd [14] of 119 nM and a koff [14] of 0.00199 s⁻¹. For the same binder, the kon [14] was 16700 M⁻¹ s⁻¹.
